# Laboratory results as given in the RNAGym collection of RNA variant scans (doi:10.1073/pnas.2313332121).
# B1: TPR t1 (parent)
# chain: GACCAAUCUGCCCUCAGAGCUCGAGAACAUCUUCGGAUGCAGAGGAGGCAGGCUUCGGUGGCGCGAUAGCGCCAACGUCCUCAACCUCCAAUGCAUCCCACCACAUGAUGAUGCCUGAAGAGCCUUGGUUUUUUG
# Variants of: B1
# Experiment: polymerase ribozyme fitness, log enrichment relative to wild type (log ratio); higher = more active; in vitro selection for triplet polymerase activity
# How it was run: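 Frozen incubation at −7 °C formed the core of a single, triplicate in vitro selection round applied to PCR-built, transcribed mutant libraries of each subunit of a heterodimeric triplet polymerase ribozyme. Extended constructs were gel-excised, captured with streptavidin beads and amplified by RT-PCR, and input and output libraries were Illumina-sequenced with a filter of ≥10 input reads and ≥1 read per output. Fitness is the logarithm of genotype enrichment relative to wild-type enrichment, with inverse-variance-weighted replicate averaging, and the logarithm is base 2.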
row,Variant,polymerase ribozyme fitness (log ratio)
1,A100U G120A G127C U131A,-2.13
2,C101A A111G,0.362
3,C102U C104A U130C,-0.457
4,C104U C123A,0.201
5,G93A U132A,-1.15
6,C101G C104U,-2.98
7,U106C A118U G120A,0.234
8,G107A C124A,-2.63
9,C99A C124U,-4.66
10,U92G C101A,-4.03
11,A90G C101G C115G,-2.74
12,U106A U125A,-0.469
13,C94G U109C A121U,-6.64
14,C98U U106G U133G,-2.9
15,C94G C123A C124A,1.47
16,C97A A105G,-5.98
17,A103U A119U,-5.64
18,C102G U112A G127U,-4.33
19,A103G A118G,-4.56
20,C99G U112C U133A,-6.59
21,A100C U112G U116A,-4.36
22,A95G A111C G113A A119C G120C,-3.77
23,C97A C104A,-5.08
24,A95U G113A,-2.53

row,Variant,polymerase ribozyme fitness (log ratio)
1,A100U G128A,-2.05
2,A95C C97U,-2.11
3,A91G U106G A111G,-3.06
4,G93A A95G,-1.81
5,U106C G117A,-3.23
6,U106C G117C,-3.72
7,A91U C115G,-2.97
8,A91U C115U,-2.04
9,G107A A119G,-4.92
10,C94A U112A,1.02
11,C104A G110A,-3.18
12,C97U G120U U130C,-0.251
13,C101U C114G,-3.89
14,U109C C123U,-4.63
15,C97U C115U,-2.49
16,C94A C98A,-6.59
17,A90U G110U,-3.55
18,G93C U109A G117U G120C,-6.83
19,U92G C97U G110U,-5.82
20,C102A G117C,-6.66
21,U109A U129A,-6.83
22,U109A A119G,-5.27
23,A91G U112A G127C,-1.56
24,C104A U112G,-1.47

row,Variant,polymerase ribozyme fitness (log ratio)
1,A103U C124G,-3.17
2,A91G U125A,-0.619
3,G93C C114G,-4.17
4,G93U G117U,-3.63
5,G93A C104A G113C,-4.27
6,U92A A111G,-3.82
7,C104A C114U G127A U131A,-6.47
8,C94G C101U,-1.46
9,C99A A121G,-4.75
10,A90U U125G,-1.11
11,C104U G120A,0.815
12,C104U U133C,0.657
13,C101A G120C,-0.0201
14,A91U A121C C124A,0.449
15,C101U A121G,1.57
16,C97G A121U,-2.07
17,U96A G128U,-1.89
18,A95G A103C G120U G135U,-6.78
19,C98A U133G,-6.12
20,U96G G127A,-2.63
21,C101G U112C,-0.331
22,C102U G113A U129A,-3.17
23,C94G U106A,-1.14
24,C99U C124A,-1.1

row,Variant,polymerase ribozyme fitness (log ratio)
1,A90U C114G G117A,-4.57
2,U92G C123A,-2.78
3,C98U C124G,-0.72
4,C102A C124U,0.448
5,C104A C115A,-0.858
6,G93C C102A U116G,-5.28
7,U106C C123A,0.522
8,U106C C123U,0.901
9,U106C C123G,0.936
10,U106C U131C U132A,-1.1
11,G107A A111U,-5.27
12,A91C C104U,-1.08
13,C97U G110U A111G,-3.06
14,U106A C123U,0.563
15,G93U U96G C124A,0.232
16,A105U U109C,-5.35
17,A100C G110U U112A,-5.07
18,A100G,-2.32
19,A100U,-0.595
20,A100C,-0.919
21,A100U G113A,-1.88
22,C99U U131C,-2.72
23,C99U U131G,-3.59
24,G93U U132C,-1.31

row,Variant,polymerase ribozyme fitness (log ratio)
1,A90U G117U,-3.37
2,C97G C115G,-3.69
3,C94A G117U U129A,-4.44
4,U106C U112A,0.973
5,G93A C114A A118C,-3.7
6,A95U C114A,-1.43
7,C94U U96A,-1.02
8,C97U G117C,-4.37
9,C94U C104U,-0.577
10,U92A U106C C114A,-4.09
11,A91C U96A,-2.09
12,A90G U125G,-0.567
13,A90U U112G,-3.12
14,C94U A95G,-0.3
15,C94U A95C,-1.19
16,U96G G117U,-2.13
17,A90U A105G,-3.78
18,U106A C114G,-3.33
19,U109A U112C U130A G135U,-5.01
20,U92A C124U,-1.43
21,A95C G107A,-7.02
22,U106G C115U,-4.44
23,C102A G128A,-4.69
24,U109C A111U,-4.13

row,Variant,polymerase ribozyme fitness (log ratio)
1,C101A U116A,-3.39
2,C104G U112A,-4.8
3,A91C C123U,-0.37
4,C94G C102A,-3.54
5,C102U A118G,-1.73
6,C101U C115U C124U,-0.886
7,C102U U130C,-1.87
8,A103C C104U U116C,-6.48
9,U92G A108U U112A G113A,-6.92
10,A95C U109A,-7.08
11,C97G G120U U126C,-4.9
12,U96A U116G U130A,-3.12
13,U96G U106C,-1.3
14,C94A C114A G122A,-3
15,C101A U109A A111G G120U C124U,-6.02
16,U109A C114U A118C,-5.26
17,A90G U112A,1.08
18,A95U G120A,-0.385
19,C98U C123U,-1.28
20,U96A A121C U126A,-0.501
21,G107C C115A,-6.69
22,C97U G110C,-3.29
23,C97U C124U,0.498
24,A91U C98U,-3.3

row,Variant,polymerase ribozyme fitness (log ratio)
1,C98A C114U C123G U131C,-5.24
2,C94A C115U,-2.44
3,G93A A95C A121U,0.651
4,A90G C104U U112C A121U U130C,2.04
5,G93C U106C U112C,0.785
6,G93C G120U,-1.78
7,G93C G120C,-1.19
8,A105C U129A,-4.21
9,U96A G113A C115A G120C,-3.71
10,C104A G120A,-0.701
11,A95U G113A G127A,-2.73
12,C98A C99A,-6.47
13,G93C G127A,-1.89
14,C99G G110C,-7.23
15,U96A U106A,-0.585
16,C94U U116C G128U,-3.48
17,C99U U132A,-2.96
18,C94U G110U,-2.05
19,C97G A118U U126A,-5.69
20,C102U G117U,-4.91
21,U92C U132C,-1.85
22,C104A C114G G127C,-6.1
23,A95G U116A C124U,-0.576
